What was measured:
[1] = substrate: NC(=O)c1ccc[n+]([C@@H]2O[C@H](COP(=O)(O)OP(=O)(O)OC[C@H]3O[C@@H](n4cnc5c(N)ncnc54)[C@H](OP(=O)(O)O)[C@@H]3O)[C@@H](O)[C@H]2O)c1; test: purified protein, by the assay type; details: other: fixed G3P; NADP varied
[2] = substrate: O=C[C@H](O)COP(=O)(O)O; test: GapN vs. GapA kinetic comparison: catalytic constants of GapA (Table 18); type: biochemical, E. coli; details: other: fixed NAD; G3P varied

B1: Bacillus methanolicus PB1 GapN (NADP-dependent glyceraldehyde-3-phosphate dehydrogenase), cds 10662A (Bacillus methanolicus PB1) (protein)
chain: MQVLEKDHKFLLNGKWCYSSSNEFINIYSPSTGEIVGRVPAMTKDEIDKAVAGACQAQKNWEKLAVSDRAKILHAWADELVKMIDVIAPMIMNEVGKNISTAKREVIRTADIIRYTAEEGVRIHGEFINGGSLDADSSKKTAIVEKKPLGVILAISPFNYPINLAATKIAPALIAGNAVVFKPATQGAISGLLMIQALENAGLPEGLVNTVTGKGSEIGDYIITHPFIDMISFTGGTGTGQNIARKASMIPLVLELGGKDPAIVLEDADLELAAAEIVSGAFSYSGQRCTAIKRVIVLKDAAAPLIEKIKEKVEKLTVGKPEDDADITPLIDESSADFVQGLIDDALAKGATLITGNKREKNLIYPTVLSNVTKDMKVAWEEPFGPVLPCIIVDSAEEAIEIANESEFGLQASVFTTNIEKAFSIASSLDVGSVQINGRTERGPDHFPFSAVKNSGLGSQGIRQSIISMMRDKVTVINLKR
- Km [1]: 320 ± 70 µM
- kcat [1]: 9.7 s⁻¹
- kcat/Km [1]: 31000 M⁻¹ s⁻¹

B2: Bacillus methanolicus MGA3 GapN (NADP-dependent glyceraldehyde-3-phosphate dehydrogenase), cds 10663A (Bacillus methanolicus MGA3) (protein)
chain: MQVLEKDFKFLLNGEWSFSSSNQFINIYSPSTGEVVGRVPAMTKDEIDKAVAGARQAQKKWEKLAVSERAKILHAWADELVKMIDVIAPMIMNEVGKNISTARKEVTRTAEIIRYTAEEGVRIHGEFINGGSLDADSSIKTAIVEKKPLGVILAISPFNYPINLAATKIAPALIAGNAVVFKPATQGAISGLLMIQALENAGLPKGLVNTVTGKGSEIGDYIITHPFIDMISFTGGTGTGQNIARKASMIPLVLELGGKDPAIVLEDADLELAATEIVSGAFSYSGQRCTAIKRVLVLKDVAAPLIEKIKEKVEKLTVGRPEDDADITPLIDESSADFVQGLIDDALAKGASLITGNKREKNLIYPTVLSNVTKDMKVAWEEPFGPVLPCIIVDSVEEAIEIANESEFGLQASVFTSNIEKAFTIASSLDVGSVQINGRTERGPDHFPFSAVKNSGLGSQGIRQSIISMMRDKVTVINLKK
- Km [1]: 270 ± 40 µM
- kcat [1]: 8.2 s⁻¹
- kcat/Km [1]: 30000 M⁻¹ s⁻¹

B3: E. coli GapA (NAD-dependent glyceraldehyde-3-phosphate dehydrogenase A; P0A9B2) (Escherichia coli K-12) (protein)
chain: MTIKVGINGFGRIGRIVFRAAQKRSDIEIVAINDLLDADYMAYMLKYDSTHGRFDGTVEVKDGHLIVNGKKIRVTAERDPANLKWDEVGVDVVAEATGLFLTDETARKHITAGAKKVVMTGPSKDNTPMFVKGANFDKYAGQDIVSNASCTTNCLAPLAKVINDNFGIIEGLMTTVHATTATQKTVDGPSHKDWRGGRGASQNIIPSSTGAAKAVGKVLPELNGKLTGMAFRVPTPNVSVVDLTVRLEKAATYEQIKAAVKAAAEGEMKGVLGYTEDDVVSTDFNGEVCTSVFDAKAGIALNDNFVKLVSWYDNETGYSNKVLDLIAHISK
notes: NAD-dependent; kinetic assay with G3P
- Km [2]: 2000 ± 300 µM
- kcat [2]: 19 ± 1 s⁻¹
- kcat/Km [2]: 9500 M⁻¹ s⁻¹

From patent US12234463B2, “Engineered microorganisms with G3P → 3PG enzyme and/or fructose-1,6-bisphosphatase including those having synthetic or enhanced methylotrophy” (Genomatica, Inc., priority 2018, dated 2025)
